The experiment deals with RDTND-RIDC/A (DUF1-RIDC/A, residues 1959–2901, C2838 to alanine), from the 6×His construct (V. vulnificus MO6-24/O). Put plainly: ITC. (In ITC the heat of successive injections is recorded.)

The results in this text go back to article PMC11266601.

For the substance “Human calmodulin2 (CaM), 6×His/GST tag cleaved (from UniProt P0DP24 1-149) (natural protein)”, the stoichiometry N was found to be 1.

As usually defined, the stoichiometry N is the number of molecules, sites or subunits per partner or assembly.
